Measurements taken from patent US20060014678A1 (IMPERIAL INNOVATIONS, published 2006).
No end group written: not given here.

Target: T1, NPY Y2 receptor
T1 chain: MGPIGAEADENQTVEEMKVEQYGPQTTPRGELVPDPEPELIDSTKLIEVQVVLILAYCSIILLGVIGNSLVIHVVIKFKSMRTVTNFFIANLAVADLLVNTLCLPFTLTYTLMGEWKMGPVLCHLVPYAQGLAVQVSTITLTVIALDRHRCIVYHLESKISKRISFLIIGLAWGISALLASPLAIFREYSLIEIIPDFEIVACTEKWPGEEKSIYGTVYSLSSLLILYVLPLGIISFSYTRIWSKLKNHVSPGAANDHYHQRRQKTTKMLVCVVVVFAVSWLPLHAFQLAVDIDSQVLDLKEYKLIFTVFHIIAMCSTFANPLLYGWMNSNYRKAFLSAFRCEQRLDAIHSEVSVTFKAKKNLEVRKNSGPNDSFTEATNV
Assay: receptor-binding study on a cell line expressing the NPY Y2 receptor

- IC50: 1.3 nM
Binder: Ac-LRHYLNLLTRQRY (ends and bridges not checked, also called Y2A; Y2R selective agonist) [N-acetyl (Leu^28, Leu^31) NPY (24-36)]
